Molecular target: hTIGIT on the surface of T cells of B-hPD-1/hTIGIT double humanized mice (human extracellular region in the mouse genome (C57BL/6)) (UniProt Q495A1)
Assay: flow cytometry on spleen cells of a B-hPD-1/hTIGIT mouse, secondary anti-human Fc FITC; Q3 (TCRβ positive, stain negative) 30.3%

hTIGIT on the surface of T cells of B-hPD-1/hTIGIT double humanized mice (human extracellular region in the mouse genome (C57BL/6)), sequence (Q495A1 22-141 limits assumed): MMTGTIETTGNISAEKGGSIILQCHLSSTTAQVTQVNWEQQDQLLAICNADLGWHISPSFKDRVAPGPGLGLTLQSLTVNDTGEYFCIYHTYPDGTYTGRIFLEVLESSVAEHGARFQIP

% of events in quadrant Q2 (mouse TCRβ positive and human IgG positive): 2.61%
Substance: IgG1 isotype control (antibody)

— patent US20220348650A1
